± gives the uncertainty stated by the source.
Assay: self-splicing fitness, log relative to wild type (ln ratio); higher = more splicing; Tetrahymena group I intron in knt gene, E. coli kanamycin selection, DiMSum; sequences stand for … in CUCUCU…GGAGGGAAAAGUUAUCAGGCAUGCACCUGGUAGCUAGUCUUUAAACCAAUAGAUUGCAUCGGUUUAAAAGGCAAGACCGUCAAAUUGCGGGAAAGGGGUCAACAGCCGUUCAGUACCAAGUCUCAGGGGAAACUUUGAGAUGGCCUUGCAAAGGGUAUGGUAAUAAGCUGACGGACAUGGUCCUAACCACGCAGCCAAGUCCUAAGUCAACAGAUCUUCUGUUGAUAUGGAUGCAGUUCACAGACUAAAUGUCGGUCGGGGAAGAUGUAUUCUUCUCAUAAGAUAUAGUCGGACCUCUCCUUAAUGGGAGCUAGCGGAUGAAGUGAUGCAACACUGGAGCCGCUGGGAACUAAUUUGUAUGCGAAAGUAUAUUGAUUAGUUUUGGAGUACUCGUGGUCG
Summary of the method: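 DiMSum derived fitness as the error-weighted combination of fold changes across replicates, kanamycin versus no kanamycin, normalised to wild type. E. coli BL21(DE3) held the library, which randomised all eight P1ex-region intron nucleotides within the knt kanamycin-resistance gene on pET-22b(+). Six replicate transformations grew overnight at 37°C or 30°C on LB agar with or without 25 μg/mL kanamycin, also containing 100 μg/mL carbenicillin, 50 μM IPTG and 0.2% rhamnose, and pooled colonies were amplicon-sequenced on an Illumina HiSeq 2500.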

AGCCAGCAAUAUUACGUUAU
self-splicing fitness (ln) (30 °C): -3.94 ± 0.19
self-splicing fitness (ln) (37 °C): -1.75 ± 0.12

CAGUAGCAAUAUUACGUUGU
self-splicing fitness (ln) (30 °C): -4.7 ± 0.28
self-splicing fitness (ln) (37 °C): -3.14 ± 0.24

CCUGAGCAAUAUUACGUUAU
self-splicing fitness (ln) (30 °C): -3.15 ± 0.26
self-splicing fitness (ln) (37 °C): -1.96 ± 0.21

GGCUAGCAAUAUUACGUUGG
self-splicing fitness (ln) (30 °C): -2.34 ± 0.16
self-splicing fitness (ln) (37 °C): -3.24 ± 0.32

GCGGAGCAAUAUUACGCGGA
self-splicing fitness (ln) (30 °C): -2.07 ± 0.33

CAAAAGCAAUAUUACGAGCG
self-splicing fitness (ln) (30 °C): -0.129 ± 0.077
self-splicing fitness (ln) (37 °C): 0.342 ± 0.097

AAAGAGCAAUAUUACGAUAU
self-splicing fitness (ln) (30 °C): -3.17 ± 0.23
self-splicing fitness (ln) (37 °C): -1.97 ± 0.16

UGCCAGCAAUAUUACGCAAG
self-splicing fitness (ln) (30 °C): -3.07 ± 0.24
self-splicing fitness (ln) (37 °C): -3.65 ± 0.46

UGGGAGCAAUAUUACGAACU
self-splicing fitness (ln) (30 °C): -0.981 ± 0.1
self-splicing fitness (ln) (37 °C): -1.42 ± 0.19

CCGUAGCAAUAUUACGAGAG
self-splicing fitness (ln) (30 °C): -3.86 ± 0.29
self-splicing fitness (ln) (37 °C): -2.54 ± 0.24

GCCGAGCAAUAUUACGACAU
self-splicing fitness (ln) (30 °C): -2.286 ± 0.016
self-splicing fitness (ln) (37 °C): -1.27 ± 0.034

CUCGAGCAAUAUUACGGCGG
self-splicing fitness (ln) (30 °C): -1.2 ± 0.12
self-splicing fitness (ln) (37 °C): -0.858 ± 0.2

GGGCAGCAAUAUUACGAAUC
self-splicing fitness (ln) (30 °C): -0.438 ± 0.15
self-splicing fitness (ln) (37 °C): -0.491 ± 0.21

CUUUAGCAAUAUUACGCCGU
self-splicing fitness (ln) (30 °C): -2.68 ± 0.41

CGGCAGCAAUAUUACGAGCU
self-splicing fitness (ln) (30 °C): -2.8 ± 0.17
self-splicing fitness (ln) (37 °C): -1.55 ± 0.14

CUACAGCAAUAUUACGAAGC
self-splicing fitness (ln) (30 °C): -3.61 ± 0.24
self-splicing fitness (ln) (37 °C): -2.85 ± 0.25

AGUAAGCAAUAUUACGGUGC
self-splicing fitness (ln) (30 °C): -4.4 ± 0.46
self-splicing fitness (ln) (37 °C): -1.37 ± 0.17

UUACAGCAAUAUUACGAUAA
self-splicing fitness (ln) (30 °C): -0.0512 ± 0.1
self-splicing fitness (ln) (37 °C): -0.232 ± 0.11

CCUGAGCAAUAUUACGUAAG
self-splicing fitness (ln) (30 °C): -3.03 ± 0.19
self-splicing fitness (ln) (37 °C): -1.6 ± 0.12

GACAAGCAAUAUUACGGUAA
self-splicing fitness (ln) (30 °C): -1.69 ± 0.11
self-splicing fitness (ln) (37 °C): -0.907 ± 0.11

UAGUAGCAAUAUUACGUUCA
self-splicing fitness (ln) (30 °C): -0.66 ± 0.15
self-splicing fitness (ln) (37 °C): 0.327 ± 0.15

GGCAAGCAAUAUUACGUAGU
self-splicing fitness (ln) (30 °C): -1.52 ± 0.098
self-splicing fitness (ln) (37 °C): -0.197 ± 0.11

AGCCAGCAAUAUUACGGUAG
self-splicing fitness (ln) (30 °C): -2.6 ± 0.097
self-splicing fitness (ln) (37 °C): -0.58 ± 0.085

CAGGAGCAAUAUUACGCCAG
self-splicing fitness (ln) (30 °C): -2.75 ± 0.32

UAACAGCAAUAUUACGCCCG
self-splicing fitness (ln) (30 °C): -0.202 ± 0.16
self-splicing fitness (ln) (37 °C): -0.59 ± 0.18

ACUUAGCAAUAUUACGCCCG
self-splicing fitness (ln) (30 °C): -1.55 ± 0.17
self-splicing fitness (ln) (37 °C): 0.138 ± 0.28

CAACAGCAAUAUUACGAUAG
self-splicing fitness (ln) (30 °C): -0.377 ± 0.052
self-splicing fitness (ln) (37 °C): 0.653 ± 0.07

CGGCAGCAAUAUUACGCAUG
self-splicing fitness (ln) (30 °C): -2.27 ± 0.074
self-splicing fitness (ln) (37 °C): -1.05 ± 0.082

CUUAAGCAAUAUUACGUACG
self-splicing fitness (ln) (30 °C): -0.58 ± 0.076
self-splicing fitness (ln) (37 °C): -0.451 ± 0.079

UUCGAGCAAUAUUACGCUUA
self-splicing fitness (ln) (30 °C): -2.79 ± 0.21
self-splicing fitness (ln) (37 °C): -1.58 ± 0.18

GCGUAGCAAUAUUACGUCCC
self-splicing fitness (ln) (30 °C): -0.245 ± 0.24

GAAGAGCAAUAUUACGUGGA
self-splicing fitness (ln) (30 °C): -2.05 ± 0.18
self-splicing fitness (ln) (37 °C): -2.54 ± 0.26

CUUUAGCAAUAUUACGUUAG
self-splicing fitness (ln) (30 °C): -2.49 ± 0.18
self-splicing fitness (ln) (37 °C): -2.32 ± 0.26

AUAAAGCAAUAUUACGGGAU
self-splicing fitness (ln) (30 °C): -0.81 ± 0.055
self-splicing fitness (ln) (37 °C): -0.671 ± 0.083

AUCGAGCAAUAUUACGCGCA
self-splicing fitness (ln) (30 °C): -1.59 ± 0.17
self-splicing fitness (ln) (37 °C): -0.0318 ± 0.17

UUCCAGCAAUAUUACGUGGC
self-splicing fitness (ln) (30 °C): -3.11 ± 0.15
self-splicing fitness (ln) (37 °C): -3.15 ± 0.24

UGAGAGCAAUAUUACGAUGA
self-splicing fitness (ln) (37 °C): -2.48 ± 0.3

UUUCAGCAAUAUUACGGUGU
self-splicing fitness (ln) (30 °C): -2.91 ± 0.13
self-splicing fitness (ln) (37 °C): -2.15 ± 0.18

GGGGAGCAAUAUUACGUUGU
self-splicing fitness (ln) (37 °C): -1.82 ± 0.28

GUAAAGCAAUAUUACGGUGC
self-splicing fitness (ln) (30 °C): -2.22 ± 0.083
self-splicing fitness (ln) (37 °C): -0.36 ± 0.083

CGUCAGCAAUAUUACGCUUC
self-splicing fitness (ln) (30 °C): -3.46 ± 0.36
self-splicing fitness (ln) (37 °C): -3.11 ± 0.31

AGCGAGCAAUAUUACGCCUG
self-splicing fitness (ln) (30 °C): -3.09 ± 0.3
self-splicing fitness (ln) (37 °C): -2.24 ± 0.36

GCACAGCAAUAUUACGCCUC
self-splicing fitness (ln) (30 °C): -0.836 ± 0.065
self-splicing fitness (ln) (37 °C): -0.337 ± 0.074

GGGCAGCAAUAUUACGGGCG
self-splicing fitness (ln) (30 °C): -0.318 ± 0.088
self-splicing fitness (ln) (37 °C): -0.0663 ± 0.1

GAAGAGCAAUAUUACGUUAG
self-splicing fitness (ln) (30 °C): -2.19 ± 0.3
self-splicing fitness (ln) (37 °C): -2.59 ± 0.31

AUCUAGCAAUAUUACGGAGC
self-splicing fitness (ln) (30 °C): -3.43 ± 0.19
self-splicing fitness (ln) (37 °C): -1.32 ± 0.14

CGGAAGCAAUAUUACGUCUA
self-splicing fitness (ln) (30 °C): -0.422 ± 0.097
self-splicing fitness (ln) (37 °C): -0.659 ± 0.076

CCCAAGCAAUAUUACGCCCA
self-splicing fitness (ln) (30 °C): -2.33 ± 0.24
self-splicing fitness (ln) (37 °C): -2.46 ± 0.25

UAAGAGCAAUAUUACGAUGA
self-splicing fitness (ln) (30 °C): -2.15 ± 0.22
self-splicing fitness (ln) (37 °C): -2.63 ± 0.38

GCGGAGCAAUAUUACGCUCC
self-splicing fitness (ln) (37 °C): -0.469 ± 0.39

AUAUAGCAAUAUUACGUAGC
self-splicing fitness (ln) (30 °C): -4.04 ± 0.39
self-splicing fitness (ln) (37 °C): -2.54 ± 0.33

AGAUAGCAAUAUUACGCUGU
self-splicing fitness (ln) (30 °C): -3.36 ± 0.25
self-splicing fitness (ln) (37 °C): -3.22 ± 0.4

CAUUAGCAAUAUUACGAUAC
self-splicing fitness (ln) (30 °C): -3.07 ± 0.47
self-splicing fitness (ln) (37 °C): -2.23 ± 0.43

UUCCAGCAAUAUUACGGGGC
self-splicing fitness (ln) (30 °C): -3.09 ± 0.32
self-splicing fitness (ln) (37 °C): -2.82 ± 0.34

GGACAGCAAUAUUACGCUGU
self-splicing fitness (ln) (30 °C): -2.73 ± 0.21
self-splicing fitness (ln) (37 °C): -2.96 ± 0.31

GAUCAGCAAUAUUACGCAAU
self-splicing fitness (ln) (30 °C): -1.56 ± 0.1
self-splicing fitness (ln) (37 °C): 0.129 ± 0.11

UUAUAGCAAUAUUACGAGUU
self-splicing fitness (ln) (37 °C): -1.96 ± 0.2

CGGUAGCAAUAUUACGACGC
self-splicing fitness (ln) (30 °C): -1.39 ± 0.16
self-splicing fitness (ln) (37 °C): -0.431 ± 0.2

CCAAAGCAAUAUUACGUUUC
self-splicing fitness (ln) (30 °C): -4.24 ± 0.25
self-splicing fitness (ln) (37 °C): -2.78 ± 0.24

CUCCAGCAAUAUUACGUACG
self-splicing fitness (ln) (30 °C): -1.82 ± 0.11
self-splicing fitness (ln) (37 °C): -0.463 ± 0.12

UACAAGCAAUAUUACGAGUA
self-splicing fitness (ln) (30 °C): -2.13 ± 0.08
self-splicing fitness (ln) (37 °C): -0.707 ± 0.078

AAUGAGCAAUAUUACGCACC
self-splicing fitness (ln) (37 °C): -1.2 ± 0.48

AGGGAGCAAUAUUACGUGUG
self-splicing fitness (ln) (30 °C): -2.78 ± 0.17
self-splicing fitness (ln) (37 °C): -3.07 ± 0.26

UUAAAGCAAUAUUACGCUAA
self-splicing fitness (ln) (30 °C): -0.626 ± 0.1
self-splicing fitness (ln) (37 °C): -0.111 ± 0.12

UGGCAGCAAUAUUACGUAGU
self-splicing fitness (ln) (30 °C): -2.99 ± 0.15
self-splicing fitness (ln) (37 °C): -1.8 ± 0.2

UAGAAGCAAUAUUACGGAUC
self-splicing fitness (ln) (30 °C): -2.24 ± 0.12
self-splicing fitness (ln) (37 °C): -1.49 ± 0.17

UCCGAGCAAUAUUACGUUUC
self-splicing fitness (ln) (30 °C): -3.39 ± 0.22
self-splicing fitness (ln) (37 °C): -2.11 ± 0.34

CCUUAGCAAUAUUACGCCGG
self-splicing fitness (ln) (30 °C): -3.82 ± 0.28
self-splicing fitness (ln) (37 °C): -2.73 ± 0.26

ACUAAGCAAUAUUACGCUGA
self-splicing fitness (ln) (30 °C): -2.16 ± 0.17
self-splicing fitness (ln) (37 °C): -1.31 ± 0.15

GGCAAGCAAUAUUACGCUUG
self-splicing fitness (ln) (30 °C): -3.26 ± 0.2
self-splicing fitness (ln) (37 °C): -3.49 ± 0.34

CUACAGCAAUAUUACGUCUG
self-splicing fitness (ln) (30 °C): -1.77 ± 0.1
self-splicing fitness (ln) (37 °C): -1.45 ± 0.13

AUAGAGCAAUAUUACGUCAG
self-splicing fitness (ln) (30 °C): -3.64 ± 0.28
self-splicing fitness (ln) (37 °C): -2.66 ± 0.23

CGACAGCAAUAUUACGUAAC
self-splicing fitness (ln) (30 °C): -4.37 ± 0.23
self-splicing fitness (ln) (37 °C): -2.03 ± 0.31

UAAAAGCAAUAUUACGCAAA
self-splicing fitness (ln) (30 °C): -3.71 ± 0.4
self-splicing fitness (ln) (37 °C): -0.788 ± 0.18

GUAAAGCAAUAUUACGAAAG
self-splicing fitness (ln) (30 °C): -2.91 ± 0.19
self-splicing fitness (ln) (37 °C): -1.33 ± 0.19

GCCGAGCAAUAUUACGGGGA
self-splicing fitness (ln) (30 °C): -1.36 ± 0.069
self-splicing fitness (ln) (37 °C): -0.555 ± 0.069

UGCCAGCAAUAUUACGCCGC
self-splicing fitness (ln) (30 °C): -2.25 ± 0.23
self-splicing fitness (ln) (37 °C): -1.49 ± 0.22

CUUUAGCAAUAUUACGUGAA
self-splicing fitness (ln) (30 °C): -3.77 ± 0.35
self-splicing fitness (ln) (37 °C): -2.65 ± 0.28

— the supplement of paper PMC7877785
